T1: FcγRIIb extracellular domain with C-terminal His tag (human, UniProt P31994 43-217)
T1 construct: extracellular domain; Soluble receptor expressed in FreeStyle293 cells and used as analyte in Biacore; also called FcgRIIb; 2b; not shown: His tag attached to the C terminus
T1 sequence (looked up): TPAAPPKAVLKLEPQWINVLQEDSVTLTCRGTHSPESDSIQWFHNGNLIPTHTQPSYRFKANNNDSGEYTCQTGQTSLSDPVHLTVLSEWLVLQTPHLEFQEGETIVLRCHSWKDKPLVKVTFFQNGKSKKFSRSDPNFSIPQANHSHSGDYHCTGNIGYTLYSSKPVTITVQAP

B1: GpH7-A5/GpH7-B3 variant E269_03V/GpL16-k0 (antibody, human IgG1, kappa)
heavy 1: not shown
heavy 2: not shown
light: DIVMTQSPLSLPVTPGEPASISCQASESLVHSNRNTYLHWYLQKPGQSPQLLIYKVSNRFSGVPDRFSGSGSGTDFTLKISRVEAEDVGVYYCSQNTHVPPTFGQGTKVEIERTVAAPSVFIFPPSDEQLKSGTASVVCLLNNFYPREAKVQWKVDNALQSGNSQESVTEQDSKDSTYSLSSTLTLSKADYEKHKVYACEVTHQGLSSPVTKSFNRGEC
notes: Heterodimerized anti-glypican-3 IgG1 with the alteration in only one H chain; also called He Ab
B2: GpH7-A5/GpH7-B3 variant D270_15Y/GpL16-k0 (antibody, human IgG1, kappa)
heavy 1: not shown
heavy 2: not shown
light: B1 light
notes: as for B1
B3: GpH7-A5/GpH7-B3 variant D270_10E/GpL16-k0 (antibody, human IgG1, kappa)
heavy 1: not shown
heavy 2: not shown
light: B1 light
notes: as for B1
B4: GpH7-A5/GpH7-B3 variant D270_19Q/GpL16-k0 (antibody, human IgG1, kappa)
heavy 1: not shown
heavy 2: not shown
light: B1 light
notes: as for B1
B5: GpH7-A5/GpH7-B3 variant D270_18N/GpL16-k0 (antibody, human IgG1, kappa)
heavy 1: not shown
heavy 2: not shown
light: B1 light
notes: as for B1
B6: GpH7-A5/GpH7-B3 variant D270_08L/GpL16-k0 (antibody, human IgG1, kappa)
heavy 1: not shown
heavy 2: not shown
light: B1 light
notes: as for B1
B7: GpH7-A5/GpH7-B3 variant E269_07I/GpL16-k0 (antibody, human IgG1, kappa)
heavy 1: not shown
heavy 2: not shown
light: B1 light
notes: as for B1
B8: GpH7-A5/GpH7-B3 variant D270_12R/GpL16-k0 (antibody, human IgG1, kappa)
heavy 1: not shown
heavy 2: not shown
light: B1 light
notes: as for B1
B9: GpH7-A5/GpH7-B3 variant D270_07I/GpL16-k0 (antibody, human IgG1, kappa)
heavy 1: not shown
heavy 2: not shown
light: B1 light
notes: as for B1
B10: GpH7-A5/GpH7-B3 variant D270_03V/GpL16-k0 (antibody, human IgG1, kappa)
heavy 1: not shown
heavy 2: not shown
light: B1 light
notes: as for B1
B11: GpH7-A5/GpH7-B3 variant E269_06M/GpL16-k0 (antibody, human IgG1, kappa)
heavy 1: not shown
heavy 2: not shown
light: B1 light
notes: as for B1
B12: GpH7-A5/GpH7-B3 variant D270_11K/GpL16-k0 (antibody, human IgG1, kappa)
heavy 1: not shown
heavy 2: not shown
light: B1 light
notes: as for B1
B13: GpH7-A5/GpH7-B3 variant D270_13S/GpL16-k0 (antibody, human IgG1, kappa)
heavy 1: not shown
heavy 2: not shown
light: B1 light
notes: as for B1
B14: GpH7-A5/GpH7-B3 variant E269_08L/GpL16-k0 (antibody, human IgG1, kappa)
heavy 1: not shown
heavy 2: not shown
light: B1 light
notes: as for B1

For one experiment, the target named is T2, FcγRIIIa extracellular domain with C-terminal His tag (human, UniProt P08637 17-208).
T2 construct: extracellular domain; also called FcgRIIIa; 3a; not shown: His tag attached to the C terminus
T2 sequence (P08637 17-208): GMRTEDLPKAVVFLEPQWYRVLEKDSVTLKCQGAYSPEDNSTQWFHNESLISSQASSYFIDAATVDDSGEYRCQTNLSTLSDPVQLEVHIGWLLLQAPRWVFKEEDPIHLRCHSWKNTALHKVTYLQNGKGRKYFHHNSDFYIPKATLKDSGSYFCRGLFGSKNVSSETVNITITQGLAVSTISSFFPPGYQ
Description: SPR (Biacore); He/Con_3a divided by He/Con_2b (FcγRIIIa over FcγRIIb). As to the method: (§1) The heterodimerized antibodies He Abs in which one of the H chains was introduced with an alteration were assayed for their binding activities to each activating FcγR and inhibitory FcγR according to the method described in Example 4. […] The activating FcγRs in FIGS. 26, 27, 28, and 29 are FcγRIa, FcγRIIa (R), FcγRIIa (H), and FcγRIIIa, respectively.
(§2) Analysis of interaction between objective antibody and the FcγR was carried out using Biacore T100 (GE Healthcare). HBS-EP+ (GE Healthcare) was used as the running buffer, and the measurement temperature was set to 25° C. Chips produced by immobilizing the antigen peptide by the amine coupling method to a Series S Sencor Chip CM5 (GE Healthcare), or alternatively, chips produced by allowing preliminarily biotinylated antigen peptides to interact with and immobilize onto a Series S Sensor Chip SA (certified) (GE Healthcare) were used. Antibodies of interest were captured onto an antigen peptide-immobilized chip, and allowed to interact to each FcγR diluted with running buffer. To regenerate and repeatedly use the chip, the antibodies captured on the chip were washed off by reacting 10 mM glycine-HCl, pH 1.5.
On the technique in general: In SPR one partner is held on a chip, and binding of the other changes the refractive index at the surface.
On to B1, for which the He_3a/2b was 1.25 ratio.

Take B2: the He_3a/2b is 1.22 ratio.

The molecule B3 yielded a He_3a/2b of 1.61 ratio.

The molecule B4 yielded a He_3a/2b of 1.7 ratio.

In turn, B5 displayed a He_3a/2b of 1.4 ratio.

Take B6: the He_3a/2b is 1.34 ratio.

Molecule B7 yielded a He_3a/2b of 1.27 ratio.

With B8, the He_3a/2b was 1.58 ratio.

B9 yielded a He_3a/2b of 1.68 ratio.

B10 showed a He_3a/2b of 1.52 ratio.

On to B11, for which the He_3a/2b amounted to 1.25 ratio.

In turn, B12 yielded a He_3a/2b of 2.02 ratio.

Molecule B13 returned a He_3a/2b of 1.28 ratio.

Turning to B14, the He_3a/2b was 1.21 ratio.

Another experiment concerns the target T1, FcγRIIb extracellular domain with …. Description: SPR (Biacore), antibody captured, FcγR as analyte; binding activity relative to control heterodimerized antibody. The method, then:
as §1, §2
As for B1, the He/Con_2b was 45.1 % of GpH7-A5/GpH7-B3/GpL16-k0 (=100).

In the case of B2, the He/Con_2b is 44.9 % of GpH7-A5/GpH7-B3/GpL16-k0 (=100).

For the molecule B3, the He/Con_2b was 76.5 % of GpH7-A5/GpH7-B3/GpL16-k0 (=100).

On to B4, for which the He/Con_2b is 48 % of GpH7-A5/GpH7-B3/GpL16-k0 (=100).

B5: the He/Con_2b was 40.3 % of GpH7-A5/GpH7-B3/GpL16-k0 (=100).

Turning to B6, the He/Con_2b is 53.6 % of GpH7-A5/GpH7-B3/GpL16-k0 (=100).

Regarding B7, the He/Con_2b is 43.9 % of GpH7-A5/GpH7-B3/GpL16-k0 (=100).

Regarding B8, the He/Con_2b is 18.3 % of GpH7-A5/GpH7-B3/GpL16-k0 (=100).

B9: the He/Con_2b was 41.5 % of GpH7-A5/GpH7-B3/GpL16-k0 (=100).

On to B10, for which the He/Con_2b is 39.5 % of GpH7-A5/GpH7-B3/GpL16-k0 (=100).

With B11, the He/Con_2b is 46.7 % of GpH7-A5/GpH7-B3/GpL16-k0 (=100).

As for B12, the He/Con_2b is 20.3 % of GpH7-A5/GpH7-B3/GpL16-k0 (=100).

On to B13, for which the He/Con_2b was 44.2 % of GpH7-A5/GpH7-B3/GpL16-k0 (=100).

B14: the He/Con_2b is 42.9 % of GpH7-A5/GpH7-B3/GpL16-k0 (=100).

A further experiment has as its target T2, FcγRIIIa extracellular domain with …. Described as above. The method, then: as §1, §2
Take B1: the He/Con_3a was 56.6 % of GpH7-A5/GpH7-B3/GpL16-k0 (=100).

For the molecule B2, the He/Con_3a is 54.5 % of GpH7-A5/GpH7-B3/GpL16-k0 (=100).

As for B3, the He/Con_3a is 123 % of GpH7-A5/GpH7-B3/GpL16-k0 (=100).

In the case of B4, the He/Con_3a is 81.9 % of GpH7-A5/GpH7-B3/GpL16-k0 (=100).

Take B5: the He/Con_3a is 56.5 % of GpH7-A5/GpH7-B3/GpL16-k0 (=100).

With B6, the He/Con_3a was 71.8 % of GpH7-A5/GpH7-B3/GpL16-k0 (=100).

As to B7, the He/Con_3a was 55.8 % of GpH7-A5/GpH7-B3/GpL16-k0 (=100).

Regarding B8, the He/Con_3a is 28.8 % of GpH7-A5/GpH7-B3/GpL16-k0 (=100).

Turning to B9, the He/Con_3a is 69.6 % of GpH7-A5/GpH7-B3/GpL16-k0 (=100).

As for B10, the He/Con_3a was 60.3 % of GpH7-A5/GpH7-B3/GpL16-k0 (=100).

Take B11: the He/Con_3a was 58.5 % of GpH7-A5/GpH7-B3/GpL16-k0 (=100).

Take B12: the He/Con_3a was 41 % of GpH7-A5/GpH7-B3/GpL16-k0 (=100).

B13: the He/Con_3a was 56.7 % of GpH7-A5/GpH7-B3/GpL16-k0 (=100).

For the molecule B14, the He/Con_3a was 52.1 % of GpH7-A5/GpH7-B3/GpL16-k0 (=100).

The record behind these values is patent US20150344570A1 (published 2015).
